Data on two proteins can be found in PMC6629641, “DNA translocation mechanism of the MCM complex and implications for replication initiation” (Nature Communications, 2019).

Data set [1] concerns the molecule itself. The data set is described as follows: crystal structure; SsoMCM-GGSGGS-ΔC with a 12-mer oligonucleotide, magnesium, ADP and beryllium fluoride; hanging drop, 18 °C, 50 mM MES pH 6.0, 100 mM NaCl, 20 mM MgCl2, 9% PEG 8000; 3.15 Å.
Data set [2] concerns the molecule itself. The data set is described as follows: SEC; last gel-filtration step after removal of the SUMO tag and anion exchange; oligomer judged from the elution volume. (In general: Size exclusion chromatography separates by hydrodynamic size, large species first.)

B1: SsoMCM-GGSGGS-ΔC (enzyme, Sulfolobus solfataricus, UniProt Q9UXG1 1-612, looked up)
chain: MEIPSKQIDYRDVFIEFLTTFKGNNNQNKYIERINELVAYRKKSLIIEFSDVLSFNENLAYEIINNTKIILPILEGALYDHILQLDPTYQRDIEKVHVRIVGIPRVIELRKIRSTDIGKLITIDGILVKVTPVKERIYKATYKHIHPDCMQEFEWPEDEEMPEVLEMPTICPKCGKPGQFRLIPEKTKLIDWQKAVIQERPEEVPSGQLPRQLEIILEDDLVDSARPGDRVKVTGILDIKQDSPVKRGSRAVFDIYMKVSSIEVSGGSGGSSEEDEKKIKDLAKDPWIRDRIISSIAPSIYGHWELKEALALALFGGVPKVLEDTRIRGDIHILIIGDPGTAKSQMLQFISRVAPRAVYTTGKGSTAAGLTAAVVREKGTGEYYLEAGALVLADGGIAVIDEIDKMRDEDRVAIHEAMEQQTVSIAKAGIVAKLNARAAVIAAGNPKFGRYISERPVSDNINLPPTILSRFDLIFILKDQPGEQDRELANYILDVHSGKSTKNIIDIDTLRKYIAYARKYVTPKITSEAKNLITDFFVEMRKKSSETPDSPILITPRQLEALIRISEAYAKMALKAEVTREDAERAINIMRLFLESVGVDMESGKIDID
notes: minichromosome maintenance (MCM) protein of Sulfolobus solfataricus, cut after amino acid 612 (the C-terminal HTH domain deleted); Homohexamer; crystallised with a 12-mer ssDNA, Mg2+, ADP and ADP-BeF3; also called nearly full-length SsoMCM; MCM hexamer; source: E. coli BL21(DE3)-RIPL, purified (Ni-NTA, size-exclusion, Ulp1 cleavage, anion exchange, gel filtration); not shown: His6, N-terminal, …
As a reminder, the stoichiometry N is the number of molecules, sites or subunits per partner or assembly. Turning to B1, in data set [1], the “stoichiometry N” value was 6.

B2: wild-type full-length SsoMCM (enzyme, Sulfolobus solfataricus, UniProt Q9UXG1 1-686, looked up)
chain: MEIPSKQIDYRDVFIEFLTTFKGNNNQNKYIERINELVAYRKKSLIIEFSDVLSFNENLAYEIINNTKIILPILEGALYDHILQLDPTYQRDIEKVHVRIVGIPRVIELRKIRSTDIGKLITIDGILVKVTPVKERIYKATYKHIHPDCMQEFEWPEDEEMPEVLEMPTICPKCGKPGQFRLIPEKTKLIDWQKAVIQERPEEVPSGQLPRQLEIILEDDLVDSARPGDRVKVTGILDIKQDSPVKRGSRAVFDIYMKVSSIEVSQKVLDEVIISEEDEKKIKDLAKDPWIRDRIISSIAPSIYGHWELKEALALALFGGVPKVLEDTRIRGDIHILIIGDPGTAKSQMLQFISRVAPRAVYTTGKGSTAAGLTAAVVREKGTGEYYLEAGALVLADGGIAVIDEIDKMRDEDRVAIHEAMEQQTVSIAKAGIVAKLNARAAVIAAGNPKFGRYISERPVSDNINLPPTILSRFDLIFILKDQPGEQDRELANYILDVHSGKSTKNIIDIDTLRKYIAYARKYVTPKITSEAKNLITDFFVEMRKKSSETPDSPILITPRQLEALIRISEAYAKMALKAEVTREDAERAINIMRLFLESVGVDMESGKIDIDTIMTGKPKSAREKMMKIIEIIDSLAVSSECAKVKDILKEAQQVGIEKSNIEKLLTDMRKSGIIYEAKPECYKKV
notes: minichromosome maintenance (MCM) protein of Sulfolobus solfataricus, full length; also called pEE045.1; source: E. coli BL21(DE3)-RIPL, purified (Ni-NTA, size-exclusion, Ulp1 cleavage, anion exchange, gel filtration); not shown: His6, N-terminal, cleaved; SUMO, N-terminal, cleaved
On to B2, for which the “stoichiometry N” value in data set [2] stood at 6.
